These results are taken from IntAct's records for PubMed 29892012.

The chains are these.
B1: Ligand of Numb protein X 2 (Homo sapiens), Q8N448 (parent)
chain: MGTTSDEMVSVEQTSSSSLNPLCFECGQQHWTRENHLYNYQNEVDDDLVCHICLQPLLQPLDTPCGHTFCYKCLRNFLQEKDFCPLDRKRLHFKLCKKSSILVHKLLDKLLVLCPFSSVCKDVMQRCDLEAHLKNRCPGASHRRVALERRKTSRTQAEIENENGPTLLDPAGTLSPEADCLGTGAVPVERHLTSASLSTWSEEPGLDNPAFEESAGADTTQQPLSLPEGEITTIEIHRSNPYIQLGISIVGGNETPLINIVIQEVYRDGVIARDGRLLAGDQILQVNNYNISNVSHNYARAVLSQPCNTLHLTVLRERRFGNRAHNHSDSNSPREEIFQVALHKRDSGEQLGIKLVRRTDEPGVFILDLLEGGLAAQDGRLSSNDRVLAINGHDLKYGTPELAAQIIQASGERVNLTIARPGKPQPGNTIREAGNHSSSSQHHTPPPYYSRPSSHKDLTQCVTCQEKHITVKKEPHESLGMTVAGGRGSKSGELPIFVTSVPPHGCLARDGRIKRGDVLLNINGIDLTNLSHSEAVAMLKASAASPAVALKALEVQIVEEATQNAEEQPSTFSENEYDASWSPSWVMWLGLPSTLHSCHDIVLRRSYLGSWGFSIVGGYEENHTNQPFFIKTIVLGTPAYYDGRLKCGDMIVAVNGLSTVGMSHSALVPMLKEQRNKVTLTVICWPGSLV
partner: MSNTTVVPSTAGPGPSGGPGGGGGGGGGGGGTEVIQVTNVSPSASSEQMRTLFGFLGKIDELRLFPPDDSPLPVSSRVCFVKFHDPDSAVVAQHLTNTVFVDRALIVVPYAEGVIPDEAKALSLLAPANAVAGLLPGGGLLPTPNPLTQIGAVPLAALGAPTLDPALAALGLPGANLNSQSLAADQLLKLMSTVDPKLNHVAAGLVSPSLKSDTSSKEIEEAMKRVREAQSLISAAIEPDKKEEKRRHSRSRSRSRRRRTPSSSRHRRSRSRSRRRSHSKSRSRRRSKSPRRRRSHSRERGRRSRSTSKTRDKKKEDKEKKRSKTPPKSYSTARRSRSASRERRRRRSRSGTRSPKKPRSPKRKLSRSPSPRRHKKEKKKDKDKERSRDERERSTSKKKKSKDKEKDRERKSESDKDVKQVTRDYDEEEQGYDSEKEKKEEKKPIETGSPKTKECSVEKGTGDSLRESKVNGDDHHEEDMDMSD
B2: Coiled-coil domain-containing protein 120 (Homo sapiens), Q96HB5-4 (parent)
chain: MRREPRYQGQVGPDIHTDSERTLSSHQPRPLDSTKMEVKGQLISSPTFNAPAALFGEAAPQVKSERLRGLLDRQRTLQEALSLKLQELRKVCLQEAELTGQLPPECPLEPGERPQLVRRRPPTARAYPPPHPNQAHHSLCPAEELALEALEREVSVQQQIAAAARRLALAPDLSTEQRRRRRQVQADALRRLHELEEQLRDVRARLGLPVLPLPQPLPLSTGSVITTQGVCLGMRLAQLSQEDVVLHSESSSLSESGASHDNEEPHGCFSLAERPSPPKAWDQLRAVSGGSPERRTPWKPPPSDLYGDLKSRRNSVASPTSPTRSLPRSASSFEGRSVPATPVLTRGAGPQLCKPEGLHSRQWSGSQDSQMGFPRADPASDRASLFVARTRRSNSSEALLVDRAAGGGAGSPPAPLAPSASGPPVCKSSEVLYERPQPTPAFSSRTAGPPDPPRAARPSSAAPASRGAPRLPPVCGDFLLDYSLDRGLPRSGGGTGWGELPPAAEVPGPLSRRDGLLTMLPGPPPVYAADSNSPLLRTKDPHTRATRTKPCGLPPEAAEGPEVHPNPLLWMPPPTRIPSAGERSGHKNLALEGLRDWYIRNSGLAAGPQRRPVLPSVGPPHPPFLHARCYEVGQALYGAPSQAPLPHSRSFTAPPVSGRYYADFLYPPELSARLSDLTLEGEQSSSSDTQTPGTLV
partner: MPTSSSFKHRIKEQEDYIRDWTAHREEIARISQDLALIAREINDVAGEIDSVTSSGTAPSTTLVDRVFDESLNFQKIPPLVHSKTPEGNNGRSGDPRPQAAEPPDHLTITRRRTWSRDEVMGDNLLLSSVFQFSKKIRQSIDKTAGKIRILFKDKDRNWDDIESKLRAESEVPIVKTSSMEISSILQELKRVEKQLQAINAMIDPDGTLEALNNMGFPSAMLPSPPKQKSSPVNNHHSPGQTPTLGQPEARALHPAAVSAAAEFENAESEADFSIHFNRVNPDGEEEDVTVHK
B3: Liprin-alpha-1 (Homo sapiens), Q13136 (parent)
chain: MMCEVMPTISEAEGPPGGGGGHGSGSPSQPDADSHFEQLMVSMLEERDRLLDTLRETQETLALTQGKLHEVGHERDSLQRQLNTALPQEFAALTKELNVCREQLLEREEEIAELKAERNNTRLLLEHLECLVSRHERSLRMTVVKRQAQSPAGVSSEVEVLKALKSLFEHHKALDEKVRERLRVALERCSLLEEELGATHKELMILKEQNNQKKTLTDGVLDINHEQENTPSTSGKRSSDGSLSHEEDLAKVIELQEIISKQSREQSQMKERLASLSSHVTELEEDLDTARKDLIKSEEMNTKLQRDVREAMAQKEDMEERITTLEKRYLAAQREATSVHDLNDKLENEIANKDSMHRQTEDKNRQLQERLELAEQKLQQTLRKAETLPEVEAELAQRVAALSKAEERHGNIEERLRQMEAQLEEKNQELQRARQREKMNEEHNKRLSDTVDKLLSESNERLQLHLKERMAALEDKNSLLREVESAKKQLEETQHDKDQLVLNIEALRAELDHMRLRGASLHHGRPHLGSVPDFRFPMADGHTDSYSTSAVLRRPQKGRLAALRDEPSKVQTLNEQDWERAQQASVLANVAQAFESDADVSDGEDDRDTLLSSVDLLSPSGQADAHTLAMMLQEQLDAINKEIRLIQEEKENTEQRAEEIESRVGSGSLDNLGRFRSMSSIPPYPASSLASSSPPGSGRSTPRRIPHSPAREVDRLGVMTLLPPSREEVRDDKTTIKCETSPPSSPRALRLDRLHKGALHTVSHEDIRDIRNSTGSQDGPVSNPSSSNSSQDSLHKAPKKKGIKSSIGRLFGKKEKGRPGQTGKEALGQAGVSETDNSSQDALGLSKLGGQAEKNRKLQKKHELLEEARRQGLPFAQWDGPTVVVWLELWVGMPAWYVAACRANVKSGAIMSALSDTEIQREIGISNPLHRLKLRLAIQEIMSLTSPSAPPTSRTTLAYGDMNHEWIGNEWLPSLGLPQYRSYFMECLVDARMLDHLTKKDLRGQLKMVDSFHRNSFQCGIMCLRRLNYDRKELERKREESQSEIKDVLVWSNDRVIRWILSIGLKEYANNLIESGVHGALLALDETFDFSALALLLQIPTQNTQARAVLEREFNNLLVMGTDRRFDEDDDKSFRRAPSWRKKFRPKDIRGLAAGSAETLPANFRVTSSMSSPSMQPKKMQMDGNVSGTQRLDSATVRTYSC
partner: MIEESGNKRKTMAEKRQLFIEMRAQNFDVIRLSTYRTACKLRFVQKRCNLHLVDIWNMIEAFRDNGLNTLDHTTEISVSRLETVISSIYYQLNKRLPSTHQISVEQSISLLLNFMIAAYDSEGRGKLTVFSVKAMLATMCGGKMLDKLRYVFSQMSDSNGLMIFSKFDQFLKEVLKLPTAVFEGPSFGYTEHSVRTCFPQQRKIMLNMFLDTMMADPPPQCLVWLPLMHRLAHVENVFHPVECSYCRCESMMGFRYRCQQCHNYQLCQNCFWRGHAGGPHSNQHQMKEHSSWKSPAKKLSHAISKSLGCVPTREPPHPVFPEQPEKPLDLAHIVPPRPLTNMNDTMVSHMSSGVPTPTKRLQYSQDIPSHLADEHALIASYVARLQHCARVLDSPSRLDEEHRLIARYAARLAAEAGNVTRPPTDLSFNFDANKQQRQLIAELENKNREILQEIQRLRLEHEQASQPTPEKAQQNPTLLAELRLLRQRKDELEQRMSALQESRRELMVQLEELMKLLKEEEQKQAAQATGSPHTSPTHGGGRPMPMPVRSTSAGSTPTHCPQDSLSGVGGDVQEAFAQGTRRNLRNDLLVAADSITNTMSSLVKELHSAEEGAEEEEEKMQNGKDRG

The variants in one assay derive from B1. To be noted: with srs11_human SRSF11, Q05519.
P669A: the “effect of a mutation on the interaction” value is given as “with no effect”.

In another assay the parent is B2. The following applies: with CEP170P1, Q96L14.
In the case of R346W, the “effect of a mutation on the interaction” value is reported as “with no effect”.

Variants of B3 are the subject of another assay. The following applies: with dtnb_human DTNB.
For the variant L330F, the “effect of a mutation on the interaction” value is listed as “with no effect”.
